Laboratory results: article PMC11350714 (JACS Au, 2024)

Target: the molecule itself
Assay: mass photometry

B1: MERS-CoV main protease (M^pro) (enzyme)
chain: SGLVKMSHPSGDVEACMVQVTCGSMTLNGLWLDNTVWCPRHVMCPADQLSDPNYDALLISMTNHSFSVQKHIGAPANLRVVGHAMQGTLLKLTVDVANPSTPAYTFTTVKPGAAFSVLACYNGRPTGTFTVVMRPNYTIKGSFLCGSCGSVGYTKEGSVINFCYMHQMELANGTHTGSAFDGTMYGAFMDKQVHQVQLTDKYCSVNVVAWLYAAILNGCAWFVKPNRTSVVSFNEWALANQFTEFVGTQSVDMLAVKTGVAIEQLLYAIQQLYTGFQGKQILGSTMLEDEFTPEDVNMQIMGVVMQ
- stoichiometry N: 2
